This experiment has as its target WIV16 RBD ([change] domain) (bat SARS-like coronavirus WIV16).

In turn, human monoclonal antibody 47D11 came in with an IC50 of neutralization of WIV16-S pseudotyped VSV (luciferase) on VeroE6 cells of 0.165 µg/mL.

These data come from publication PMC8172134.
